In patent publication US20230080534A1, “SEMG2 ANTIBODY AND USE THEREOF” (SHANGHAI BIOTROY BIOTECHNIQUE CO., LTD., priority 2020, published 2023):

Assays:
[1] = target: T1, binding between SEMG2 and CD27 (Homo sapiens, UniProt Q02383); assay: Antibody blocking ELISA of SEMG2 binding to CD27-Fc; conditions: antibody 10 μg/mL
T1 sequence (Q02383 24-582): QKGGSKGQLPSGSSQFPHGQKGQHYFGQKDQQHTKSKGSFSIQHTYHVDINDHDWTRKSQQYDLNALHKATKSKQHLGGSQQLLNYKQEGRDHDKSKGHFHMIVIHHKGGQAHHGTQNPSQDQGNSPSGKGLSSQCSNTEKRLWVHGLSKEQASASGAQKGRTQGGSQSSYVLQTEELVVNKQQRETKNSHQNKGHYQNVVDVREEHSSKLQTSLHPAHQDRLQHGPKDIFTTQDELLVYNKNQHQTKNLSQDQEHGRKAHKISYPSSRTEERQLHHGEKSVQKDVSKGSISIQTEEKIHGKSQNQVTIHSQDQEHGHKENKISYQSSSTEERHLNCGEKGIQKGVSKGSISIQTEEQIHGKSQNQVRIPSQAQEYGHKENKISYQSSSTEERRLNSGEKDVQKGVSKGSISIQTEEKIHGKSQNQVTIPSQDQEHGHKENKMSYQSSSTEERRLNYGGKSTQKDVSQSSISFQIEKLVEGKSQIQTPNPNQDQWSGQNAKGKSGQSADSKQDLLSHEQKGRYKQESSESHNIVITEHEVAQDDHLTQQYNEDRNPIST
Description: Because SEMG2 (497-509) sequence fragment is the key epitope of SEMG2 binding to CD27, and has a relatively short sequence, so SEMG2 (497-509) was used as an immunogen to prepare antibodies, which is theoretically easier to obtain functional antibody molecules with the function of blocking the binding between SEMG2 and CD27 than using full-length SEMG2 to prepare antibodies. For direct comparison, the differences in effective concentration of producing antibody by the two methods were verified using ELISA in the examples. Antibodies produced with SEMG2 (497-509) as immunogen and antibodies produced with full-length SEMG2 were added into the enzyme-linked immunosorbent assay (ELISA) reaction system at different concentrations (10^-2, 10^-1, 10^0, 10^1, 10^2, 10^3, 10^4 μg/mL), and the ELISA binding values were measured. The specific steps of enzyme-linked immunosorbent assay are as follows: (1) Dissolve SEMG2 protein antigen with 50 mM carbonate coating buffer (pH 9.6) to make the antigen concentration 10 μg/mL, and add into 96-well ELISA plate (purchased from Corning) at 100 μL/well, place at 4° C. overnight. (2) After discarding the coating solution on the next day, wash with PBST for three times, add 150 μL of 1% BSA to each well, and block for 2 hours at 37° C. […] (4) After washing for 5 times with PBST, add 100 of diluted HRP-labeled anti-human Fe secondary antibody, and incubate at 37° C. for 1 hour. (5) After washing with PBST for 5 times, 20 min after developing with chromogenic agent, the A450 absorption value was read using the microplate reader.
The SEMG2 (497-509) sequence was used to synthesize a polypeptide and coupled to a VLP carrier for immunization; HEK293 cells were used to express the full-length SEMG2 protein, and the purity was tested to reach 92%, and the binding activity of SEMG2 protein to CD27 was verified by ELISA. The protein and polypeptide antigens were used to immunize 10 mice respectively, and multiple immunizations were performed to enhance the effect: (1) The first immunization, 50 μg/mice of antigen, multiple subcutaneous injections together with Freund's complete adjuvant, with an interval of 3 weeks; (2) the second immunization; the same dosage and route as above, with incomplete Freund's adjuvant, and with an interval of 3 weeks; (3) the third immunization, the same dosage as above, without adjuvant, intraperitoneal injection with an interval of 3 weeks; (4) the booster immunization, the dose is 50 μg, intraperitoneal injection. 3 days after the last injection, blood was collected to measure its titer and the immune effect, and mice with higher titers were selected for hybridoma fusion screening. After subcloning, the binding of the monoclonal antibodies to the target antigens was detected by ELISA, and the function of different monoclonal antibodies in blocking the binding between SEMG2 and CD27 was measured by ELISA.
First, SEMG2(497-509) epitope-specific antibodies (for example, MM02, MM05) were compared with other epitope-specific antibodies (for example, HPA042767) for their function in blocking binding between SEMG2 and CD27 at different concentration ranges. […] The blocking function of different antibodies (irrelative mouse IgG, MM02, MM05, HPA042767) on binding between SEMG2 and CD27 was analyzed by the ELISA experiment as described in Example 11.
Further, the effects of different antibodies on the binding between SEMG2 and CD27 were compared under the condition of the same antibody concentration. In the ELISA, the same concentration (10 μg/mL) of antibody was used, and the strength of the binding between SEMG2 and CD27 was measured. […]

[2] = system: A375 human melanoma cells; assay: Tumor cell killing by activated PBMC, caspase-3/7 apoptosis; format: cell-based; conditions: A375, SEMG2-positive, co-culture with activated PBMC 10:1
Experimental: (§1) To test the above hypothesis, the effects of different epitope-specific antibodies on tumor cell killing by activated PBMC were compared. Specifically, A375 human melanoma and LOVO human colorectal cancer cells highly expressing SEMG2 were seeded in 96-well plate. Human peripheral blood mononuclear cells (PBMC; #70025, Stem Cell) were activated with 100 ng/mL of CD3 antibody, 100 ng/mL, of CD28 antibody, and 1.0 ng/mL of IL2 (#317303; #302913; #589102, BioLegend), respectively, and co-cultured with the above tumor cells at a ratio of 10:1 in presence of fluorescent caspase-3/7 substrate (#4440, Essen Bioscience). After 1.0 hours, cells were observed under fluorescence microscope.
(§2) To verify the above hypothesis, tumor cells with high SEMG2 expression (A375, LOVO) and SEMG2-negative tumor cells (DLD1, NCM460 and NCI-H1975) were selected. Different antibodies (irrelevant mouse IgG antibodies, MM02 or MM05 antibodies) were added during the PBMC killing experiments for the tumor cells.
(§3) To verify the effect of the human antibodies on the function of activated PBMC on tumor cell killing, A375 and LOVO cells were co-cultured with activated PBMC, and H88-93, H88-96, or H88-67 antibody was added at the same time, and the apoptosis ratio of tumor cells were detected.

[3] = system: LOVO human colorectal cancer cells; assay: as above; format: cell-based; conditions: SEMG2-positive, co-culture with activated PBMC 10:1
Experimental: as §1, §2, §3

SEMG2(497-509) fragment = target: T2, SEMG2(497-509) fragment (Homo sapiens, UniProt Q02383); assay: ELISA binding of antibodies to SEMG2(497-509) epitope
T2 construct: SEMG2(497-509) fragment and SEMG2(563-574) fragment were immobilized on the ELISA plate; made in house; host or cells: chemical synthesis
Experimental: Specifically, SEMG2 full-length protein (1-582), SEMG2(354-403) fragment, SEMG2(442-453) fragment, SEMG2(497-509) fragment and SEMG2(563-574) fragment were immobilized on the ELISA plate, and the same concentration of antibodies (MM02, MM05, MM07, MM08, MM13, MM14, HPA042767 and HPA042835) were added. Anti-mouse or anti-rabbit secondary antibodies were then used to detect the corresponding bound antibodies. MM02, MM05, MM07, MM08, MM13, and MM14 all bound to SEMG2(497509) epitope, HPA042767 bound to SEMG2 (354-403) epitope, and HPA042835 bound to […], while none of the antibodies bound to SEMG2 (442-453) control fragment.
Specifically, the preparation of polypeptide antigens and the screening of human natural antibody library were firstly performed. The SEMG2(497-509) polypeptide was synthesized and coupled to BSA and KLH, respectively, and screened in a fully human phage display antibody library. ELISA was used to select clones that bind to antigenic epitopes for preliminary screening. Different unique sequences were obtained after sequencing single colonies, sorted according to affinity sorting, and full-length antibodies were constructed from antigen-binding fragments (Fab) with relatively high affinity. The binding ability and blocking function tests were performed after purification, that is, the effect of the antibody on binding between SEMG2 and CD27 was determined by the ELISA experiment.

SEMG2 = target: T3, SEMG2 (Homo sapiens, UniProt Q02383); assay: Competition ELISA of fully human antibody with murine antibodies for SEMG2; format: binding; conditions: concentration gradient of fully human antibody mixed with murine antibody
T3 sequence (Q02383 24-582): T1 sequence (Q02383 24-582)
Experimental: The binding abilities of fully human antibodies and murine antibodies to SEMG2 were tested, that is, murine antibodies MM02 and MM05 and concentration gradient diluted filly human antibodies H88-93 were mixed and added as primary antibodies in a 96-well microplate coated with SEMG2. Murine monoclonal antibody bound to SEMG2 was measured using anti-mouse HRP secondary antibody. The blocking percentage is calculated according to the following formula:
Blocking percentage=[1−(A450 of experimental antibody group-Blank control)/(A450 of positive control antibody−A450 of empty control)]×100%

B1: H88-93: fully human antibody from phage library against SEMG2(497-509), VH SEQ ID NO:55, VL SEQ ID NO:58 (antibody, V domains shown)
VH: QITLKESGPTLVKPTQTLTLTCNFSGFSLTTSGVGVAWIRQPPGKALEWLALIYWDDDQRYSPSLKSRLSVTKHTSKDQVVLTMTNVGPVDTATYYCAHLSYGPGWGYYMDVWGNGTMVTVSS
VL: EIVLTQSPGTLSLSPGERASLSCRASQSVRNNYLAWYQQKPGQAPRLLIFGASNRATGIPDTFSGSGSGTDFTLTISRLEPEDFAVYYCQQYGHSPITFGQGTRLEIK
modifications: UNSURE (1)..(123) VH; UNSURE (1)..(108) VL
With B1 the “effect on the binding between SEMG2 and CD27” value [1] was “inhibited the binding”, the “apoptosis tumor cell ratio / killing by activated PBMC” value [2] was “significantly promote the killing” and the “apoptosis tumor cell ratio / killing by activated PBMC” value [3] was “significantly promote the killing”. For the same molecule, the “binding to SEMG2(497-509) epitope” value (SEMG2(497-509) fragment) was “bind” and the “competition with MM02 and MM05 for binding to SEMG2” value (SEMG2) was “competes”.
